Data from paper PMC4846087.

Experiments:
[1] = target: GST (27 kDa GST protein); test: SEC; Superdex 200 10/300 GL pre-equilibrated with L buffer (40 mM Tris-base, 200 mM NaCl, 1 mM EDTA, 5% glycerol, 5 mM DTT, pH 8.0); eluate of the GST affinity column loaded; molecular weights of the peaks estimated from the column manufacturer's instructions; peaks analysed by SDS-PAGE
[2] = target: GST-tagged VirB9-1 (not stated | Anaplasma marginale); test: as above

stoichiometry N [1]	Substance	stoichiometry N [2]
2	GST (27 kDa GST protein) (natural protein)	
	GST-tagged VirB9-1	2
